Data reported in US20020090619A1, “Methods for identifying mitochondrial divalent cation transporters” (priority 2000, published 2002).

Legend:
[1] = tested on: isolated yeast mitochondria; test: Ca2+ transport in isolated yeast mitochondria expressing aequorin (luminescence); format: biochemical, Saccharomyces cerevisiae; conditions: 2 μM A23187, medium containing no added Ca^2+, FIG. 22B
Method: For preculture, the transformant was inoculated into 50 ml of SC-U plus 2% glucose, and incubated in an air shaker at 180 rpm and 30° C. At 24 hr, the preculture was transferred to 500 ml of a medium containing 1% yeast extract, 2% peptone, 2% lactate, 1% galactose, 0.012% adenine, pH 5 w/NaOH, and growth was continued under conditions which were otherwise the same. Cells were harvested after an additional 24 hr, spheroplasts were prepared using zymolyase, and mitochondria were isolated by the method of Daum et al. (1982) as previously described (Jung et al., 1997). The final pellet was resuspended at ˜20 mg protein/ml in 0.6 M mannitol, 20 mM HEPES (K^+ salt, pH 6.8). Apoaequorin in the intact or disrupted mitochondria was reconstituted by incubation with coelenterazine as described above for cells.
For most experiments, the mitochondria were present at 0.4 mg protein/ml in a standard medium that contained 0.3 M KCl, 20 mM HEPES, (K^+ salt, pH 7.10), 10 mM KH2PO4, 2 mM EGTA, and 2 mM MgCl2. Other additions are described in greater detail below. Ca^2+ buffers were formed by adding various amounts of CaCl2 to this EGTA containing medium. The free Ca^2+ concentrations which resulted were calculated using a computer program (Brooks et al., 1992 Anal. Biochem. 201:119).
Luminescence measurements were carried out in 6×50 mm culture tubes, using a total volume of 0.3 ml, and were started by injection of 5-20 μl of mitochondria or cells. A SAI model 3000 integrating photometer was employed, with AJD sampling at 0.4 seconds intervals driven by Asyst software. Values were transformed into corresponding Ca^2+ concentrations by computer assisted calculations based upon published calibration methods (Allen et al., 1977 Science 195:996; Brini et al., 1995 J. Biol. Chem. 270:9896). For each value, the ratio of observed luminescence (L) to the potential luminescence remaining (Lmax) was calculated, and compared to a calibration curve which relates this ratio to the free Ca^2+ concentration. Thus, complete calibrated progress curves were generated. The total luminescence available initially (Ltotal) must be known and was determined in separate experiments, wherein a saturating Ca^2+ concentration (20 μM) is employed to discharge the aequorin completely. This value allows Lmax to be calculated at any time, as Ltotal minus the sum of luminescence that already occurred.
The calibration data were obtained at an ionic strength of 335 mM and in the presence of 1 mM Mg^2+, to mimic conditions in the mitochondrial matrix, because both factors influence the affinity of aequorin for Ca2+ (Cobbold et al., 1987 Biochem. J. 248:313). Luminescence values were corrected for low background values that are obtained when Ca^2+ is absent before conducting further calculations.

[2] = tested on: intact yeast; test: Aequorin luminescence in intact yeast cells expressing mitochondrially targeted aequorin; format: cell-based, Saccharomyces cerevisiae; conditions: intact cells
Method: Yeast cells (strain X4003-5B; leu2, ade1, his4, met2, ura3, trp5, gal1) obtained from the Yeast Genetic Stock Center (Berkeley, Calif.) were transformed with the pYES2 plasmid, encoding the human mitochondrially targeted apoaequorin fragment, using the lithium acetate method (Sambrook et al., 1989), and INVSc1 cells were transformed with the pGK plasmid encoding the yeast mitochondrially targeted apoaequorin fragment. Selection was carried out on plates prepared with synthetic complete medium minus uracil (SC-U) (Sherman, 1991 Meths. Enzymol. 194:3). Transformed colonies were cultured in a small volume of SC-U and assayed for aequorin activity in vitro as described by Nakajima et al. (1991 Proc. Nat. Acad. Sci. USA 88:6878). Briefly, the cells were harvested by centrifugation, resuspended in lysis buffer (50 mM Tris, 2 mM EDTA, 0.5 mM PMSF, pH 8 w/NaOH), disrupted by vortexing with glass beads, and then treated with 0.1% Triton X-100 to release apoaequorin from the mitochondria. Following centrifugation, 200 μl aliquots of the supernatants were incubated with coelenterazine (2.5 μM) and 2-mercaptoethanol (2 μl), for ˜3 hr while standing on ice, to form the luminescent aequorin from its apoprotein. The coelenterazine cofactor is highly hydrophobic and readily permeates yeast cell membranes (Nakajima et al., 1991) such that reconstitution was conducted without disrupting the cells in some cases. 2-mercaptoethanol was omitted when intact cells were employed. A transformant which yielded high luminescence (named X4003-5B-AEQmito1) was selected for further characterization.
For preculture, the transformant was inoculated into 50 ml of SC-U plus 2% glucose, and incubated in an air shaker at 180 rpm and 30° C. At 24 hr, the preculture was transferred to 500 ml of a medium containing 1% yeast extract, 2% peptone, 2% lactate, 1% galactose, 0.012% adenine, pH 5 w/NaOH, and growth was continued under conditions which were otherwise the same. […]
Luminescence measurements were carried out in 6×50 mm culture tubes, using a total volume of 0.3 ml, and were started by injection of 5-20 μl of mitochondria or cells. […] For each value, the ratio of observed luminescence (L) to the potential luminescence remaining (Lmax) was calculated, and compared to a calibration curve which relates this ratio to the free Ca^2+ concentration. […] The total luminescence available initially (Ltotal) must be known and was determined in separate experiments, wherein a saturating Ca^2+ concentration (20 μM) is employed to discharge the aequorin completely. This value allows Lmax to be calculated at any time, as Ltotal minus the sum of luminescence that already occurred. […]

[3] = Yuchi et al., 1993; cited from earlier work
[4] = Esterase cleavage of divalent cation-sensitive indicator molecule precursors (fluorescence); format: biochemical; conditions: precursor 1 μg/ml, sonicated E. coli expressing the esterase
Text: Standard molecular biology procedures were used (Sambrook et al., 1989 Molecular Cloning: A Laboratory Manual, Cold Spring Harbor Laboratory Press, Cold Spring Harbor, N.Y.). All reagents were from Sigma (St. Louis, Mo.) unless otherwise indicated. E. coli cells expressing esterases from several sources: B. subtilis para-nitrobenzyl esterase from plasmid PNB106R (Zock et al., 1994) (SEQ ID NO:1; SEQ ID NO:7); Acinetobacter areA expressed in E. coli strain BL21(DE3) (SEQ ID NO:2; from plasmid pADPW40, Jones et al. 1999 J. Bacteriol. 181:4568, obtained from Drs. R. Jones and P. Williams, Univeristy of Wales Bangor, UK); Acinetobacter SalE expressed in E. coli strain BL21(DE3) (SEQ ID NO:3; from plasmid pADPW70, Jones et al. 2000 J. Bacteriol. 1832:2018, also obtained from Drs. R. Jones and P. Williams, Univeristy of Wales Bangor, UK) were grown in 10 mL of standard LB media plus ampicillin (100 μg/ml) at 37° C. Tetracycline (10 μg/ml) was present instead of ampicillin for the cells expressing B. subtilis para-nitrobenzyl esterase. For strains expressing all proteins except para-nitrobenzyle esterase, the cells were grown to an OD (λ=600 nm) of 0.6 and protein expression was induced by administration of […] IPTG for 4 hours until the culture reached an OD600 of ˜1.0. Cells expressing para-nitrobenzylesterase were grown at 30° C. and protein expression was induced by a temperature shift to 40° C. for 6 hours. The cells attained an OD600 of ˜1.0. Cells were washed, pelleted by centrifugation, and then resuspended in 0.5 ml of cold 0.12 M Tris Cl, pH 8.0. Cells were sonicated for ten seconds and then incubated on ice for ten seconds. This sonication step was repeated eight times.
For fluorescence measurements, a volume of 50 μl of the sonicated cell suspension was placed in 3.0 ml of 0.1 M KCl, 50 uM EGTA, 20 mM HEPES pH 7.40. As a divalent cation-sensitive indicator molecule, one of the following compounds (all from Molecular Probes, Inc., Eugene, Oreg.) was present at a final concentration of 1 μg/ml: BCECF AM (BCECF (2′,7′-bis-(2-carboxyethyl)-5-(and-6)-carboxyfluorescein), a proton indicator used as an esterase-cleavable control), Rhod-2 AM, Fluo-3 AM, Indo-1 AM, or Fura-2 AM. To monitor detection of divalent cation using the divalent cation-sensitive indicator molecules generated by esterase cleavage of the precursor forms, each reaction was made 2 mM CaCl2 The wavelengths used for the indicator dyes were as follows: Fluo-3, excitation 488 nm, emission 520 nm; Rhod-2, excitation 540 nm, emission 580 nm; Indo-1 AM, excitation 338 nm, emission scan […]; Fura-2, excitation scan 250-450 nm, emission 510 nm; BCECF, excitation 440 nm, emission 550 nm.

Molecule	hydrolysis of indicator precursors (AM esters) to Ca^2+-sensitive indicator molecules [4]	other results
CNc1ccc2oc(C[C@H]3O[C@@]4(CC[C@H]3C)O[C@H]([C@H](C)C(=O)c3ccc[nH]3)[C@H](C)C[C@H]4C)nc2c1C(=O)O [A23187]		effect on matrix Ca^2+ concentration [1]: reduced the matrix Ca^2+ concentration below the detection limit; additional luminescence when added after the response to ETH 129 [2]: absence of any additional luminescence
COc1cc(N(CC(=O)O)CC(=O)O)c2nc(COc3cc(C)ccc3N(CC(=O)O)CC(=O)O)ccc2c1 [Quin-2]		pKa^4 [3]: 6.25
areA: Acinetobacter areA esterase expressed in E. coli BL21(DE3) (SEQ ID NO:2) (protein, listed as Acinetobacter sp.) MLQSLDPQLASFFAMLENQGAPAFDIGTLNDPNINEMRNWYLNFGPHVAGQFIELQDVEDLWIQVDDGSLRLRLYKTQRQHSESCETLIYFHGGGWCIGSIETHDLLCRHLVNDLDVNVISVDYRLAPEYPYPQAAHDAIHATQWIFEHASALGIHPDHLYVAGDSAGGNLAAITALTFKEQTYRTSLAGQILIYPCIDLTVIHDNKYPSFEKQKLTPPLSAEQMSKMIQIYLKNEDFAYQWLASPLLAQSHQHLPSTLIITAEFDPLHDQGCVYFEKLKSSLVNTEYHEIKGVVHGFFEMYGVLNKTKETINIIRAWLKNNTKSK	rate of hydrolysis appeared to be significantly slower	
SalE esterase: Acinetobacter SalE esterase expressed in E. coli BL21(DE3) (SEQ ID NO:3) (protein, listed as Acinetobacter sp.) MITYVLVHGSWHDGSLWEPVATHLRAQGHTVHCPTVAGHGPNADRNVTHAQCSQSIADYIVKHDLSEIVLLGHSYGGTIISKVAEAIPERIQRLIYWNAFVLQDGENMFDNMPEAYYELFTSLAAASGDNTVLLPYEVWRHAFINDADDQMAEETYKMLTPEPCQPFHDRLDLKKFYTLNIPKSYLNCTEDQALPAGFWHPKMSNRLGEFKLVEMGGSHEAMFTRPQELATKIIEASHD	no apparent Ca^2+ sensitivity was detected	
Para-nitrobenzyl esterase: B. subtilis para-nitrobenzyl esterase from plasmid PNB106R (SEQ ID NO:1; SEQ ID NO:7) (protein, listed as Bascillus subtilis) MTHQIVTTQYGKVKGTTENGVHKWKGIPYAKPPVGQWRFKAPEPPEVWEDVLDATAYGPICPQPSDLLSLSYTELPRQSEDCLYVNVFAPDTPSQNLPVMVWIHGGAFYLGAGSEPLYDGSKLAAQGEVIVVTLNYRLGPFGFLHLSSFDEAYSDNLGLLDQAAALKWVRENISAFGGDPDNVTVFGESAGGMSIAALLAMPAAKGLFQKAIMESGASRTMTKEQAASTAAAFLQVLGINESQLDRLHTVAAEDLLKAADQLRIAEKENIFQLFFQPALDPKTLPEEPEKSIAEGAASGIPLLIGTTRDEGYLFFTPDSDVHSQETLDAALEYLLGKPLAEKAADLYPRSLESQIHMMTDLLFWRPAVAYASAQSHYAPVWMYRFDWHPEKPPYNKAFHALELPFVFGNLDGLERMAKAEITDEVKQLSHTIQSAWITFAKTGNPSTEAVNWPAYHEETRETVILDSEITIENDPESEKRQKLFPSKGE	detectably hydrolyzed all divalent cation-sensitive indicator molecule precursors that were tested	
HD-1 esterase: HD-1 esterase from an oil degrading bacterium (SEQ ID NO:4) (protein, Sequence encoding petroleum-degrading bacterium esterase.) MTLDAQAKAILDQIARSPMPKLHQVPASVARQMFEISCKLTEIKNLPIGRVEDRVIPGPDDTELPIRIYTPVAAPPGPLPVLVFFHGGGFVIGSLDSHDAPCRLIANEARCLVVSVDYRLAPENRFPAAVDDCLAAVTWVARNAAEINADPTRIAVGGDSAGGNLSAVVSQQLRDAGGPKIVFQLLIYPATDALHEGLSRTSNAEGYMLDKDLMSWFFAQYLGDGGGVDLADPRFSPLRHANLGNLGTIHVVVAGFDPLRDEGIAYAEALKAAGNKVTLSEFKGQIHGFCSMAGVIEAGRTALVEGAALLKEAFAQA	Slow hydrolyses of Fura-2 AM and Indo-1 AM	
